# Experimental data: patent US20220195043A1 (BEIJING MABWORKS BIOTECH, published 2022)
# Like-named read-outs stand apart in the source and are kept apart here.
# T1: human CD20 (HEK293A/human CD20 cells) (human, UniProt P11836 1-297)
# T1 sequence: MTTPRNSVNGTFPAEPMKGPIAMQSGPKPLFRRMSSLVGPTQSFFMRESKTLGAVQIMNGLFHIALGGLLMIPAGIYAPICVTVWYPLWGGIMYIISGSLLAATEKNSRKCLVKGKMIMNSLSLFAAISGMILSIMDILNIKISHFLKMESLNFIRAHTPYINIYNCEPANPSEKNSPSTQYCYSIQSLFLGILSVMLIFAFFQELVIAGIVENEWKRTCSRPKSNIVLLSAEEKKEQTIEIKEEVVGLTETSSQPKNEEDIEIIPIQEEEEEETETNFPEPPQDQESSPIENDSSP
# T2: monkey CD20 (HEK293A/monkey CD20 cells) (monkey, UniProt P11836 1-297 (human entry))
# T2 construct: Stably expressed on HEK293A cells; also called cynomolgus CD20
# T2 chain: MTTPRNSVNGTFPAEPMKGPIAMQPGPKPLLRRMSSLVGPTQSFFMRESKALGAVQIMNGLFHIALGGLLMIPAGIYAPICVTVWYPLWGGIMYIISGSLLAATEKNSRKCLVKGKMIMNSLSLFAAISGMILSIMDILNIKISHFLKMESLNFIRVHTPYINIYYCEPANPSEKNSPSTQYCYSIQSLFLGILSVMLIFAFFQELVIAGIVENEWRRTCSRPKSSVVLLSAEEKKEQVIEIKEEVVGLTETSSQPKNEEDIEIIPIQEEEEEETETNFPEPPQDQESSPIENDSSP
# T3: monkey CD3ε-his (Cat #: 90047-C08H, SinoBiological, China) (monkey, UniProt Q95LI5 22-117)
# T3 construct: Bought protein; also called monkey CD3ε protein; recombinant monkey CD3ε
# T3 sequence: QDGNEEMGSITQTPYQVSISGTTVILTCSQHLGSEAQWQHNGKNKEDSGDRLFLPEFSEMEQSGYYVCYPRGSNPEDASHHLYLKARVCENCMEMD
# Legend:
# [1] = biological target: T1, human CD20 (HEK293A/human CD20 cells); test: cell-based or functional assay
# [2] = biological target: T4, human CD3ε-his (Cat #:10977-H08s, SinoBiological, China) (human, UniProt P07766 23-126); test: SPR (BIAcore 8K); human CD3ε-his coupled to CM5 chip, antibody injected
# T4 construct: Bought protein; also called human CD3ε protein; recombinant human CD3ε; not shown: his tag
# T4 sequence (P07766 23-126 limits assumed): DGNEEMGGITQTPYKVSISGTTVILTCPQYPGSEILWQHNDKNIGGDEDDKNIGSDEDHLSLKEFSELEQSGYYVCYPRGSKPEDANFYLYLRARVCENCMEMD
# [3] = biological target: T1, human CD20 (HEK293A/human CD20 cells); test: FACS on HEK293A/human CD20 cells, PE anti-human IgG secondary antibody, MFI
# [4] = biological target: T2, monkey CD20 (HEK293A/monkey CD20 cells); test: FACS on HEK293A/monkey CD20 (CynoCD20) cells, PE anti-human IgG secondary antibody, MFI
# [5] = biological target: T4, human CD3ε-his (Cat #:10977-H08s, …); test: ELISA: plate coated with human CD3ε-his (hCD3ε-his), antibody titrated, HRP goat anti-human IgG, OD450
# [6] = biological target: T5, human TCR/CD3 complex on cell surfaces (primary human CD4+ T cells; Jurkat cells; human PBMCs) (human, UniProt P07766 23-207); test: FACS on primary human T cells, PE goat anti-human IgG, MFI
# T5 construct: whole, on cells; Native complex on cells; the γ, δ, ζ and TCR chains of the complex are present on the cells too; also called human CD3 complexes on cell surfaces; human CD3+ T cells
# T5 sequence (P07766 23-207, one chain of several): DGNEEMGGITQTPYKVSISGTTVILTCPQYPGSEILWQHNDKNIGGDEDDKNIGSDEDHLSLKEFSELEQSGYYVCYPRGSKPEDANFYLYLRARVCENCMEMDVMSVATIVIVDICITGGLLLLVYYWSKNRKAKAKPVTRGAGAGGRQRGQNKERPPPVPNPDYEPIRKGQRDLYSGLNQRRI
# [7] = biological target: T4, human CD3ε-his (Cat #:10977-H08s, …); test: SPR (BIAcore 8K); human CD3ε-his coupled to CM5 chip, antibody injected; remark: listed apart in the source
# [8] = biological target: T4, human CD3ε-his (Cat #:10977-H08s, …); test: ELISA: plate coated with human CD3ε-his, antibody titrated, HRP goat anti-human IgG, OD450
# [9] = biological target: T4, human CD3ε-his (Cat #:10977-H08s, …); test: ELISA: plate coated with human CD3ε-his, antibody titrated, HRP goat anti-human IgG, OD 450
# [10] = biological target: T3, monkey CD3ε-his (Cat #: 90047-C08H, …); test: ELISA: plate coated with monkey CD3ε-his, antibody titrated, HRP goat anti-human IgG, OD450
# [11] = biological target: T3, monkey CD3ε-his (Cat #: 90047-C08H, …); test: ELISA: plate coated with monkey CD3ε-his, antibody titrated, HRP goat anti-human IgG, OD 450
# [12] = biological target: T5, human TCR/CD3 complex on cell surfaces …; test: FACS on primary human T cells, PE goat anti-human IgG, MFI; remark: listed apart in the source
# [13] = biological target: T4, human CD3ε-his (Cat #:10977-H08s, …); test: ELISA: plate coated with human CD3ε-his, antibody titrated, HRP goat anti-human IgG, OD 450; remark: listed apart in the source
# [14] = biological target: T3, monkey CD3ε-his (Cat #: 90047-C08H, …); test: ELISA: plate coated with monkey CD3ε-his, antibody titrated, HRP goat anti-human IgG, OD 450; remark: listed apart in the source
# [15] = biological target: T5, human TCR/CD3 complex on cell surfaces …; test: FACS on primary human T cells, PE goat anti-human IgG, MFI; remark: listed apart in the source
binder,measurement,setting,value
"MBS303-1 (bispecific antibody against CD3 and CD20, MIL220 + MIL221-1) (bispecific antibody, human IgG1, kappa, lambda, L234A L235A, N297A, CD20:CD3 = 2:1) heavy 1: QVQLVQSGAEVKKPGSSVKVSCKASGYAFSYSWINWVRQAPGQGLEWMGRIFPGDGDTDYNGKFKGRVTITADKSTSTAYMELSSLRSEDTAVYYCARNVFDGYWLVYWGQGTLVTVSSASTKGPSVFPLAPSSKSTSGGTAALGCLVKDYFPEPVTVSWNSGALTSGVHTFPAVLQSSGLYSLSSVVTVPSSSLGTQTYICNVNHKPSNTKVDKKVEPKSCDKTHTCPPCPAPEAAGGPSVFLFPPKPKDTLMISRTPEVTCVVVDVSHEDPEVKFNWYVDGVEVHNAKTKPREEQYASTYRVVSVLTVLHQDWLNGKEYKCKVSNKALPAPIEKTISKAKGQPREPQVYTLPPSREEMTKNQVSLSCAVKGFYPSDIAVEWESNGQPENNYKTTPPVLDSDGSFFLVSKLTVDKSRWQQGNVFSCSVMHEALHNHYTQKSLSLSPGK light 1: DIVMTQTPLSLPVTPGEPASISCRSSKSLLHSNGITYLYWYLQKPGQSPQLLIYQMSNLVSGVPDRFSGSGSGTDFTLKISRVEAEDVGVYYCAQNLELPYTFGGGTKVEIKRTVAAPSVFIFPPSDEQLKSGTASVVCLLNNFYPREAKVQWKVDNALQSGNSQESVTEQDSKDSTYSLSSTLTLSKADYEKHKVYACEVTHQGLSSPVTKSFNRGEC heavy 2: QVQLVQSGAEVKKPGSSVKVSCKASGYAFSYSWINWVRQAPGQGLEWMGRIFPGDGDTDYNGKFKGRVTITADKSTSTAYMELSSLRSEDTAVYYCARNVFDGYWLVYWGQGTLVTVSSGGGGSGGGGSGGGGSDIVMTQTPLSLPVTPGEPASISCRSSKSLLHSNGITYLYWYLQKPGQSPQLLIYQMSNLVSGVPDRFSGSGSGTDFTLKISRVEAEDVGVYYCAQNLELPYTFGGGTKVEIKGGGGSGGGGSGGGGSEVQLLESGGGLVQPGGSLRLSCAASGFTFNTYAMNWVRQAPGKGLEWVARIRSKYNNYATYYAISVKDRFTISRDNSKNTLYLQMNSLRAEDTAVYYCVKHGNFGNSYLSYWAYWGQGTLVTVSSASTKGPSVFPLAPSSKSTSGGTAALGCLVKDYFPEPVTVSWNSGALTSGVHTFPAVLQSSGLYSLSSVVTVPSSSLGTQTYICNVNHKPSNTKVDKKVEPKSCDKTHTCPPCPAPEAAGGPSVFLFPPKPKDTLMISRTPEVTCVVVDVSHEDPEVKFNWYVDGVEVHNAKTKPREEQYASTYRVVSVLTVLHQDWLNGKEYKCKVSNKALPAPIEKTISKAKGQPREPQVYTLPPSREEMTKNQVSLWCLVKGFYPSDIAVEWESNGQPENNYKTTPPVLDSDGSFFLYSKLTVDKSRWQQGNVFSCSVMHEALHNHYTQKSLSLSPGK light 2: QAVVTQEPSLTVSPGGTVTLTCQSSTGAVTTNNYANWVQQKPGHAFRGLIGGTKQRAPGVPARFSGSLLGGKAALTLSGVQPEDEAEYYCVLWYSNLWVFGGGTKLTVLGQPKAAPSVTLFPPSSEELQANKATLVCLISDFYPGAVTVAWKADSSPVKAGVETTTPSKQSNNKYAASSYLSLTPEQWKSHRSYSCQVTHEGSTVEKTVAPT","EC50 of killing of HEK293A/hCD20 cells by T cells, MBS303-1 alone",[1],0.0076 µg/mL
same,"EC50 of killing of HEK293A/hCD20 cells by T cells, MBS303-1 with 1 µg/ml MIL62",[1],0.0032 µg/mL
same,Kd,[2],1.99 nM
same,EC50 (read off the curve),[3],~0.04 µg/mL
same,binding result,[4],binds
same,EC50 (read off the curve),[5],~0.06 µg/mL
"chimeric antibody 19-15 (full length, human IgG1) (antibody, V domains shown) VH: EVKLLESGGGLVQPKGSLKLSCAASGFTFNTYAMNWVRQAPGKGLEWVARIRSKYNNYATYYAISVKDRFTISRDDSQSILYLQMNNLKTEDTAMYYCVRHGNFGNSYLSYWAYWGQGTLVTVSA VL: QAVVTQESALTTSPGETVTLTCQSSTGAVTTNNYANWVQEKPDHLFTGLIGGTKQRAPGVPARFSGSLIGDKAALTITGAQTEDEAIYFCVLWYSNLWVFGGGTKLTVLG",EC50 (read off the curve),[6],~200 µg/mL
same,kon,[7],229000 M⁻¹ s⁻¹
same,EC50 (read off the curve),[8],~60 µg/mL
same,EC50 (read off the curve),[9],~0.05 µg/mL
same,EC50 (read off the curve),[10],~60 µg/mL
same,EC50 (read off the curve),[11],~0.04 µg/mL
"chimeric antibody 19-26 (full length, human IgG1) (antibody, V domains shown) VH: EVKLLESGGGLVQPKGSLKLSCAASGFTFNTYAMNWVRQAPGKGLEWVARIRSKYNNYATYYADSVKDRFTISRDDSQSILYLQMNNLKTEDTAMYYCVRHGNFGNSYISWWAYWGQGTLVTVSA VL: QAVVTQESALTTSPGETVTLTCKSSTGAVTTSNYANWVQEKPDHLFTGLIGGTNLHAPGVPARFSGSLIGDKAALTITGAQTEDEAIYFCALWYSNLWVFGGGTKLTVLG",EC50 (read off the curve),[6],~700 µg/mL
same,EC50 (read off the curve),[12],~0.2 µg/mL
same,EC50 (read off the curve),[9],~0.05 µg/mL
same,EC50 (read off the curve),[13],~0.1 µg/mL
same,EC50 (read off the curve),[14],~0.1 µg/mL
"humanized anti-CD3 antibody 15H3L2 (human IgG1) (antibody, V domains shown) VH: EVQLLESGGGLVQPGGSLRLSCAASGFTFNTYAMNWVRQAPGKGLEWVARIRSKYNNYATYYAISVKDRFTISRDDSKNTLYLQMNSLRAEDTAMYYCVRHGNFGNSYLSYWAYWGQGTLVTVSS VL: QTVVTQEPSLTVSPGGTVTLTCQSSTGAVTTNNYANWVQQKPGQAPRALIGGTKQRAPGTPARFSGSLLGGKAALTLSGVQPEDEAEYYCVLWYSNLWVFGGGTKLTVLG",EC50 (read off the curve),[15],~0.2 µg/mL
same,EC50 (read off the curve),[8],~100 µg/mL
same,EC50 (read off the curve),[10],~100 µg/mL
"humanized anti-CD3 antibody 15H3L3 (human IgG1, light constant region SEQ ID NO: 23) (antibody) heavy: not shown light: QAVVTQEPSLTVSPGGTVTLTCQSSTGAVTTNNYANWVQQKPGHAFRGLIGGTKQRAPGVPARFSGSLLGGKAALTLSGVQPEDEAEYYCVLWYSNLWVFGGGTKLTVLGQPKAAPSVTLFPPSSEELQANKATLVCLISDFYPGAVTVAWKADSSPVKAGVETTTPSKQSNNKYAASSYLSLTPEQWKSHRSYSCQVTHEGSTVEKTVAPTECS",EC50 (read off the curve),[15],~0.2 µg/mL
same,EC50 (read off the curve),[8],~300 µg/mL
same,EC50 (read off the curve),[10],~300 µg/mL
"humanized anti-CD3 antibody 26H2L3 (human IgG1) (antibody, V domains shown) VH: EVQLLESGGGLVQPGGSLRLSCAASGFTFNTYAMNWVRQAPGKGLEWVARIRSKYNNYATYYADSVKDRFTISRDNSKNTLYLQMNSLRAEDTAVYYCVKHGNFGNSYISWWAYWGQGTLVTVSS VL: QAVVTQEPSLTVSPGGTVTLTCKSSTGAVTTSNYANWVQQKPGHAFRGLIGGTNLHAPGVPARFSGSLLGGKAALTLSGVQPEDEAEYYCALWYSNLWVFGGGTKLTVLG",EC50 (read off the curve),[12],~0.1 µg/mL
same,EC50 (read off the curve),[13],~0.1 µg/mL
same,EC50 (read off the curve),[14],~0.1 µg/mL
"mAB2 (anti-CD3 antibody of Macrogenics, positive control) (antibody, V domains shown) VH: EVQLVESGGGLVQPGGSLKLSCAASGFTFNTYAMNWVRQAPGKGLEWVARIRSKYNNYATYYADSVKDRFTISRDDSKNTAYLQMNSLKTEDTAVYYCVRHGNFGDSYVSWFAYWGQGTLVTVSS VL: QTVVTQEPSLTVSPGGTVTLTCRSSTGAVTTSNYANWVQQKPGQAPRGLIGGTNKRAPGTPARFSGSLLGGKAALTLSGVQPEDEAEYYCALWYSNLWVFGGGTKLTVL",Kd,[7],0.154 nM
